Source: publication PMC12309418

How the values were obtained:
[1] = target: fluorescein-maleimide labeled ABD2 of PLS2 (human); assay: fluorescence polarisation; stopped-flow fluorescence anisotropy kinetics, 25 °C, buffer pH 7.4; association: FM-ABD2 (50 or 100 nM) with at least 10-fold excess of unlabeled RD-ABD1 (pseudo-first-order); dissociation: 25 or 50 nM FM-ABD2 bound to 50 or 100 nM RD-ABD1, competed with 7.5 to 20 μM unlabeled ABD2; Kd calculated from koff and kon
[2] = target: fluorescein-maleimide labeled ABD2 of PLS2 (human); assay: fluorescence polarisation; equilibrium fluorescence anisotropy in a plate reader, 10 nM FM-ABD2 with increasing RD-ABD1, 60 min at 22 °C, PLS buffer pH 7.0, quadratic isotherm fit
[3] = target: fluorescein-maleimide labeled ABD2 of PLS2 (human); assay: fluorescence polarisation; stopped-flow fluorescence anisotropy kinetics, 25 °C, buffer pH 7.8; association: FM-ABD2 (50 or 100 nM) with at least 10-fold excess of unlabeled RD-ABD1 (pseudo-first-order); dissociation: 25 or 50 nM FM-ABD2 bound to 50 or 100 nM RD-ABD1, competed with 7.5 to 20 μM unlabeled ABD2; Kd calculated from koff and kon
[4] = target: fluorescein-maleimide labeled ABD2 of PLS2 (human); assay: fluorescence polarisation; stopped-flow fluorescence anisotropy kinetics, 25 °C, buffer pH 8.0; association: FM-ABD2 (50 or 100 nM) with at least 10-fold excess of the unlabeled RD-ABD1 construct (pseudo-first-order); dissociation: 25 or 50 nM FM-ABD2 bound to 50 or 100 nM RD-ABD1 construct, competed with 7.5 to 20 μM unlabeled ABD2; Kd calculated from koff and kon
[5] = target: fluorescein-maleimide labeled ABD2 of PLS2 (human); assay: fluorescence polarisation; stopped-flow fluorescence anisotropy kinetics, 25 °C, buffer pH 7.0; association: FM-ABD2 (50 or 100 nM) with at least 10-fold excess of the unlabeled RD-ABD1 construct (pseudo-first-order); dissociation: 25 or 50 nM FM-ABD2 bound to 50 or 100 nM RD-ABD1 construct, competed with 7.5 to 20 μM unlabeled ABD2; Kd calculated from koff and kon
[6] = target: fluorescein-maleimide labeled ABD2 of PLS2 (human); assay: fluorescence polarisation; stopped-flow fluorescence anisotropy kinetics, 25 °C, buffer pH 6.6; association: FM-ABD2 (50 or 100 nM) with at least 10-fold excess of unlabeled RD-ABD1 (pseudo-first-order); dissociation: 25 or 50 nM FM-ABD2 bound to 50 or 100 nM RD-ABD1, competed with 7.5 to 20 μM unlabeled ABD2; Kd calculated from koff and kon
[7] = target: fluorescein-maleimide labeled ABD2 of PLS2 (human); assay: fluorescence polarisation; equilibrium fluorescence anisotropy in a plate reader, 10 nM FM-ABD2 with increasing RD-ABD1, 60 min at 22 °C, PLS buffer pH 8.0, quadratic isotherm fit
[8] = target: Skeletal actin, filamentous (F-actin) (rabbit) (UniProt P68135)
[9] = target: Skeletal actin, filamentous (F-actin) (rabbit) (UniProt P68135); assay: fluorescence polarisation; equilibrium fluorescence anisotropy in a plate reader, 5 nM FM-ABD2 with F-actin stabilized with 1.0 uM phalloidin, PLS buffer pH 7.0, 22 °C, quadratic isotherm
[10] = target: Skeletal actin, filamentous (F-actin) (rabbit) (UniProt P68135); assay: fluorescence polarisation; stopped-flow fluorescence anisotropy kinetics, pH 7.4, 25 °C; association: FM-ABD2 (50 or 100 nM) with at least 10-fold F-actin; dissociation: from phalloidin-stabilized F-actin with excess unlabeled ABD2; Kd from koff and kon
[11] = target: PLS2 RD-ABD1 (a.a. 1-385) (human) (UniProt P13796); assay: fluorescence polarisation; stopped-flow fluorescence anisotropy, 25 °C, PLS buffer pH 6.6; association of FM-ABD2 (50 or 100 nM) with excess RD-ABD1 (kon from the slope of kobs, line forced through koff); dissociation by competition with 7.5 to 20 uM unlabeled ABD2 (koff)
PLS2 RD-ABD1 (a.a. 1-385) (human), sequence (P13796 1-385): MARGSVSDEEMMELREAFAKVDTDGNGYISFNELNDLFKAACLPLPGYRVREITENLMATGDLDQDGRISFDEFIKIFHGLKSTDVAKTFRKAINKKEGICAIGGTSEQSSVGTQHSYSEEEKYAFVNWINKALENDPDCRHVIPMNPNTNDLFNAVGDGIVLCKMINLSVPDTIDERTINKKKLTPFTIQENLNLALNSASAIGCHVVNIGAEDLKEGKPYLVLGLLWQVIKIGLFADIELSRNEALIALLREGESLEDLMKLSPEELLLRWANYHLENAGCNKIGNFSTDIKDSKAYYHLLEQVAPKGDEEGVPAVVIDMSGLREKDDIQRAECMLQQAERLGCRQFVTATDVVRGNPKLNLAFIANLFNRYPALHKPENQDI

[12] = target: PLS2 RD-ABD1 (a.a. 1-385) (human) (UniProt P13796); assay: fluorescence polarisation; stopped-flow fluorescence anisotropy, 25 °C, PLS buffer pH 7.0; association of FM-ABD2 (50 or 100 nM) with excess RD-ABD1 (kon from the slope of kobs, line forced through koff); dissociation by competition with 7.5 to 20 uM unlabeled ABD2 (koff)
[13] = target: PLS2 RD-ABD1 (a.a. 1-385) (human) (UniProt P13796); assay: fluorescence polarisation; equilibrium fluorescence anisotropy, pH 7.0, PLS buffer, 22 °C, 60 min; 10 nM FM-ABD2 with RD-ABD1; quadratic isotherm
[14] = target: PLS2 RD-ABD1-H207K (human) (UniProt P13796); assay: fluorescence polarisation; stopped-flow fluorescence anisotropy kinetics of FM-ABD2 with RD-ABD1-H207K and RD-ABD1-H207Y, 25 °C, pH 7.0 and 8.0 (fold changes for both pH values together); dissociation with excess unlabeled ABD2
[15] = target: PLS2 RD-ABD1-H207Y (human) (UniProt P13796); assay: as above
[16] = target: Skeletal actin, filamentous (F-actin) (rabbit) (UniProt P68135); assay: fluorescence polarisation; equilibrium fluorescence anisotropy, pH 8.0, PLS buffer, 22 °C, 60 min; 5 nM FM-ABD2 with F-actin stabilized with 1.0 μM phalloidin; quadratic isotherm
[17] = target: Skeletal actin, filamentous (F-actin) (rabbit) (UniProt P68135); assay: fluorescence polarisation; stopped-flow fluorescence anisotropy kinetics, pH 7.8, 25 °C; association of FM-ABD2 (50 or 100 nM) with at least 10-fold F-actin; koff could not be measured
[18] = target: Skeletal actin, filamentous (F-actin) (rabbit) (UniProt P68135); assay: fluorescence polarisation; stopped-flow fluorescence anisotropy kinetics, pH 6.8, 25 °C; association: FM-ABD2 (50 or 100 nM) with at least 10-fold F-actin; dissociation: from phalloidin-stabilized F-actin with excess unlabeled ABD2; Kd from koff and kon
[19] = target: Skeletal actin, filamentous (F-actin) (rabbit) (UniProt P68135); assay: fluorescence polarisation; equilibrium fluorescence anisotropy in a plate reader, 5 nM FM-ABD2 with F-actin stabilized with 1.0 uM phalloidin, PLS buffer pH 8.0, 22 °C, quadratic isotherm
[20] = target: PLS2 RD-ABD1 (a.a. 1-385) (human) (UniProt P13796); assay: fluorescence polarisation; stopped-flow fluorescence anisotropy, 25 °C, PLS buffer pH 7.8; association of FM-ABD2 (50 or 100 nM) with excess RD-ABD1 (kon from the slope of kobs, line forced through koff); dissociation by competition with 7.5 to 20 uM unlabeled ABD2 (koff)
[21] = target: PLS2 RD-ABD1 (a.a. 1-385) (human) (UniProt P13796); assay: fluorescence polarisation; stopped-flow fluorescence anisotropy, 25 °C, PLS buffer pH 7.4; association of FM-ABD2 (50 or 100 nM) with excess RD-ABD1 (kon from the slope of kobs, line forced through koff); dissociation by competition with 7.5 to 20 uM unlabeled ABD2 (koff)
[22] = target: Skeletal actin, filamentous (F-actin) (rabbit) (UniProt P68135); assay: fluorescence polarisation; stopped-flow fluorescence anisotropy kinetics, pH 8.0, 25 °C; association of FM-ABD2 (50 or 100 nM) with at least 10-fold F-actin; koff could not be measured
[23] = target: Skeletal actin, filamentous (F-actin) (rabbit) (UniProt P68135); assay: fluorescence polarisation; equilibrium fluorescence anisotropy, pH 7.0, PLS buffer, 22 °C, 60 min; 5 nM FM-ABD2 with F-actin stabilized with 1.0 μM phalloidin; quadratic isotherm
[24] = target: Skeletal actin, filamentous (F-actin) (rabbit) (UniProt P68135); assay: fluorescence polarisation; stopped-flow fluorescence anisotropy kinetics, pH 6.6, 25 °C; association: FM-ABD2 (50 or 100 nM) with at least 10-fold F-actin; dissociation: from phalloidin-stabilized F-actin with excess unlabeled ABD2; Kd from koff and kon
[25] = target: PLS2 RD-ABD1 (a.a. 1-385) (human) (UniProt P13796); assay: fluorescence polarisation; stopped-flow fluorescence anisotropy kinetics of FM-ABD2 with RD-ABD1, 25 °C, pH 6.6 to 8.0 (the text tells the results for the whole pH range together); dissociation with excess unlabeled ABD2
[26] = target: Skeletal actin, filamentous (F-actin) (rabbit) (UniProt P68135); assay: fluorescence polarisation; stopped-flow fluorescence anisotropy kinetics, pH 7.0, 25 °C; association: FM-ABD2 (50 or 100 nM) with at least 10-fold F-actin; dissociation: from phalloidin-stabilized F-actin with excess unlabeled ABD2; Kd from koff and kon
[27] = target: PLS2 RD-ABD1 (a.a. 1-385) (human) (UniProt P13796); assay: fluorescence polarisation; stopped-flow fluorescence anisotropy, 25 °C, PLS buffer pH 8.0; association of FM-ABD2 (50 or 100 nM) with excess RD-ABD1 (kon from the slope of kobs, line forced through koff); dissociation by competition with 7.5 to 20 uM unlabeled ABD2 (koff)

PLS2 RD-ABD1 (a.a. 1–385), sequence (P13796 1-385): as above
PLS2-core (a.a. 83–627), sequence (P13796 83-627): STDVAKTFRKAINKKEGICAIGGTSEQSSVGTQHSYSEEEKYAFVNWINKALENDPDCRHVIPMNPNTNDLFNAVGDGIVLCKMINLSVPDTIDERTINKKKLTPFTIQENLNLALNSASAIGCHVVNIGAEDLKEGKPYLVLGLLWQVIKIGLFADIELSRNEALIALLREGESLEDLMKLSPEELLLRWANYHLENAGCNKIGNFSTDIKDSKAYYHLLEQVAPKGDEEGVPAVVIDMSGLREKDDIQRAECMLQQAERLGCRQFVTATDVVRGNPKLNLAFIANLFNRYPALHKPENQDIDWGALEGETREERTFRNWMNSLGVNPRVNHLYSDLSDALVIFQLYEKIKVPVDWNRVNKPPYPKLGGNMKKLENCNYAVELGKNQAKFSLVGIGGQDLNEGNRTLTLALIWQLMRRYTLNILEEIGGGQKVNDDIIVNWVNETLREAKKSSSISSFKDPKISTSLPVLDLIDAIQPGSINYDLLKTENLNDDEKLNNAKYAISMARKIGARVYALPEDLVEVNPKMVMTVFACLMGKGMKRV

In the case of “PLS2 RD-ABD1 (a.a. 1–385) (from UniProt P13796 1-385) (domain or fragment)”, the Kd [1] is reported as 11 nM, the koff [1] is reported as 0.013 s⁻¹ and the kon [1] is reported as 1.24e+06 M⁻¹ s⁻¹. The Kd [2] was 4.5 nM, the Kd [3] was 7.7 nM and the koff [3] was 0.008 s⁻¹. It also gave a kon [3] of 1.07e+06 M⁻¹ s⁻¹, a Kd [4] of 7.6 nM and a koff [4] of 0.008 s⁻¹. The kon [4] was 1.01e+06 M⁻¹ s⁻¹, the Kd [5] was 5.7 nM and the koff [5] was 0.009 s⁻¹. It also gave a kon [5] of 1.6e+06 M⁻¹ s⁻¹, a Kd [6] of 5.1 nM and a koff [6] of 0.01 s⁻¹. For the same substance, the kon [6] was 1.94e+06 M⁻¹ s⁻¹ and the Kd [7] was 8.7 nM.

For “PLS2 RD-ABD1-H207K (from UniProt P13796 1-385) (domain or fragment)”, the kon [4] was 1.12e+06 M⁻¹ s⁻¹, the Kd [5] was 24 nM and the koff [5] was 0.039 s⁻¹. For the same substance, the kon [5] was 1.59e+06 M⁻¹ s⁻¹.

“PLS2 RD-ABD1-H207Y (from UniProt P13796 1-385) (domain or fragment)” was tested, and the Kd [4] was 2.2 nM, the koff [4] was 0.0026 s⁻¹ and the kon [4] was 1.21e+06 M⁻¹ s⁻¹. The Kd [5] was 1.1 nM, the koff [5] was 0.0021 s⁻¹ and the kon [5] was 1.87e+06 M⁻¹ s⁻¹.

For “PLS2-core (a.a. 83–627) (from UniProt P13796 83-627) (domain or fragment)”, the fold decrease in F-actin bundling by PLS2-core (light scattering; low-speed centrifugation), pH 8.0 against pH 7.0 [8] was 2 fold.

“fluorescein-maleimide labeled PLS2 ABD2 (FM-ABD2) (domain or fragment)” was tested, and the Kd [9] was 2.88 nM, the Kd [10] was 12 nM and the koff [10] was 0.0073 s⁻¹. For the same substance, the kon [10] was 601000 M⁻¹ s⁻¹, the koff [11] was 0.00992 s⁻¹ and the kon [11] was 1.94e+06 M⁻¹ s⁻¹. The koff [12] was 0.00905 s⁻¹, the kon [12] was 1.6e+06 M⁻¹ s⁻¹ and the fold stronger association at pH 7.0 than at pH 8.0 [13] was 2 fold. It also gave a fold change of kon against WT RD-ABD1 [14] of under 1.2 fold, a fold increase of koff against WT RD-ABD1 [14] of 4 to 12 fold and a fold change of kon against WT RD-ABD1 [15] of under 1.2 fold. The fold decrease of koff against WT RD-ABD1 [15] was 3 to 4 fold, the Kd [16] was 1.7 nM and the kon [17] was 1.28e+06 M⁻¹ s⁻¹. For the same substance, the Kd [18] was 13 nM, the koff [18] was 0.0066 s⁻¹ and the kon [18] was 502000 M⁻¹ s⁻¹. For the same substance, the Kd [19] was 0.613 nM, the koff [20] was 0.00826 s⁻¹ and the kon [20] was 1.07e+06 M⁻¹ s⁻¹. The koff [21] was 0.0135 s⁻¹, the kon [21] was 1.24e+06 M⁻¹ s⁻¹ and the kon [22] was 1.45e+06 M⁻¹ s⁻¹. It also gave a Kd [23] of 5 nM, a Kd [24] of 15 nM and a koff [24] of 0.0073 s⁻¹. The kon [24] was 479000 M⁻¹ s⁻¹, the fold slower kon at pH 8.0 than at pH 6.6 [25] was 2 fold and the koff [25] was 0.008 s⁻¹. The Kd [26] was 9.5 nM, the koff [26] was 0.0057 s⁻¹ and the kon [26] was 600000 M⁻¹ s⁻¹. It also gave a koff [27] of 0.0077 s⁻¹ and a kon [27] of 1.01e+06 M⁻¹ s⁻¹.
